Assay: soluble on expression in E. coli; label from the status in PepcDB or PDB records

Sequence | soluble on expression in E. coli
MGSDKIHHHHHHMEFQCPLCRQRLHFHEESRGWHCDGKHHFDKKEIGYWDFYKGNKPRNAESRQELRARQFLVTSGLFQPAVEAMVKVLQTQDCGSERNCVNLGPGHAWIGKLLAQALSEHELPLKVFSPLESENEAFAAAKSGMEAVCLTPLKSLPFADASADMVWLLDIPAKGKEWQRILKPGGLLLMLAAGPRHLWQIKEFVYEGLTEKPFVLELSGQFDLISQTPVSWTHALSVADAKVLMGMAPWAWRVKEASLKAMEKGDFSGLEMDYRIILAKKRV | not soluble
AETTVKPTKLAVIGAGAVGSTLAFAAAQRGIAREIVLEDIAKERVEAEVLDMQHGSSFYPTVSIDGSDDPEICRDADMVVITAGPRQKPGQSRLELVGATVNILKAIMPNLVKVAPNAIYMLITNPVDIATHVAQKLTGLPENQIFGSGTNLDSARLRFLIAQQTGVNVKNVHAYIAGEHGDSEVPLWESATIGGVPMSDWTPLPGHDPLDADKREEIHQEVKNAAYKIINGKGATNYAIGMSGVDIIEAVLHDTNRILPVSSMLKDFHGISDICMSVPTLLNRQGVNNTINTPVSDKELAALKRSAETLKETAAQFGF | soluble
QITYWKERQRRKTIRAEEIRGLIYRIWKIYPSLLGQELLESTIFVFMVLAAVARLGAEDVAVYKLLDLVCGMLELPVYAYAAATQTYALQNHAAGKKAAVRSYEK | not soluble
MQIALAPMEGLVDEILRDVLTRVGGIDWCVTEFIRITDRLLPATAFHKLAPELRDGSRTRAGTPMRVQLLGSDPACLADNAAFACELGAPVIDLNFGCPAKTVNRSRGGAVLLKEPELMHDIVAAVRRAVPSEIAVTSKMRLGYDSPDGALDCARALADGGSAHVVVHARTKVDGYRPPAHWEWVARVAEAVRVPVFANGEVWTLDDYLRCREVSGVEDIMLGRGLVSRPGLARQIAAWRDGGEIREMPWSELLPLLRDFWLQARRKLAPRYAPGRLKQWLGMLTRTYPEAVELFARIRRESDCETIDR | not soluble
MYKDLEGKVVVITGSSTGLGKSMAIRFATEKAKVVVNYRSKEDEANSVLEEIKKVGGEAIAVKGDVTVESDVINLVQSAIKEFGKLDVMINNAGLENPVSSHEMSLSDWNKVIDTNLTGAFLGSREAIKYFVENDIKGTVINMSSVHEKIPWPLFVHYAASKGGMKLMTETLALEYAPKGIRVNNIGPGAINTPINAEKFADPEQRADVESMIPMGYIGEPEEIAAVAAWLASSEASYVTGITLFADGGMTLYPSFQAGRG | soluble
MGHDLADIKKSFEASLPGYVEKKDPKSILPQPGKRNILITAALPYVNNVPHLGNIIGCVLSADVFARYCNLRGHQTFYVGGTDEYGTATETKALQEGCTPRELCDKYHAIHKGIYEWFGIDFSHFGRTTTDHQTEICQDMFLKLHKNGYTSSQSVDQLYCNQCEKFLADRFVTGTCPMCAYDDARGDQCDGCGKLINAVDLKDAKCHMCKATPEVKQSTHIFLSLDKLQQKTTEHLDRELAKEDNRWSSNAVGITKAWMKLGLDPRCITRDLKWGTAVPLDGFEKKVFYVWFDAPIGYLSITKCVLGDNWTKWWKNPENVELFNFVGKDNVAFHAVMFPCSQLGANDNYTVVNNLCATEYLNYEDTKFSKSRGTGIFGDAAQGTEIPADIWRFYLLYMRPESQDTAFSWDDFVLKVNSELLNNLGNFINRALSFVANSFGGVVPEMNLTNDDAEVLSEIHNECMQWDKQFDGVHLKDAVKTILNVSRLGNQYMQAQTPWVLMKKDEEGKKRAGTIIGVAANIAYHVSVLLYPIMPTISATIREQCGLPALPLFTPFPICYLKAGHKIGQPSPLFQKLDPAQIAEFKAKFGGSQDAQSSAPKTAEKPKQQKKQAPTKDKKGDKKMASTAAFVELEQGAKVISQLIAQNLKKFDQAKALFTRNQLQRLDGENKQLTIDVKTLQHQLIELETAAGIKQVPKPVVSCTPTPTSTPASGIITEAPKKEAPSTPAPSEPKKAKEQKKGKGGAAAAPVDDTIDVGRLDMRVGRIIKCEKHPDADALYVEQIDVGESAPRTVVSGLVRHVPLDQMQNRLVVVLCNLKPAKMRGVESRAMVMCASSPDKVEIMEVPADSKPGTPVVCPPYTHRPDEQLNPKKKIWETVAEDLKVSAEGFAEWKGQPLLIGSESKMTAPTLRGVHVK | not soluble
MHHHHHHSSGRENLYFQGMTVREKTRLEKFRQLLSSQNTDLDELRKCSWPGVPREVRPITWRLLSGYLPANTERRKLTLQRKREEYFGFIEQYYDSRNEEHHQDTYRQIHIDIPRTNPLIPLFQQPLVQEIFERILFIWAIRHPASGYVQGINDLVTPFFVVFLSEYVEEDVENFDVTNLSQDMLRSIEADSFWCMSKLLDGIQDNYTFAQPGIQKKVKALEELVSRIDEQVHNHFRRYEVEYLQFAFRWMNNLLMRELPLRCTIRLWDTYQSEPEGFSHFHLYVCAAFLIKWRKEILDEEDFQGLLMLLQNLPTIHWGNEEIGLLLAEAYRLKYMFADAPNHYRR | soluble
ICTTICPYGRLQGVLLDKNSINVAYDYIRGERRGHLKRGEDREIAGKGDCIDCHQCVHVCPTGIDIRNGVQMECINCTACIDEC | not soluble
MTCDDWNSYIQVNIYGKTIEGLQQQGVVLESLLNNVGCSKVWIMEGSVCTNPRPESSTHSEESTIEPVVPLSTTLATNKLPRFSTPAIGHSNNNSSKNFTLNLAEKLSEILSDDDKTDEFLENSHQSETSKDDVIKDLLEEMVQTVANSNKPPILLSTTLANVGVPRFSTPIKPQHALNRDFTMNMTEMISEIDSNYEGYELFDDSSNDCTTLTPNCQEVESSFYRALSEAASSIVPYQEGKRRSSRRLSTLSSLKETVKVEPAVSKLTKRRRLTPVECSSETMIPHSQPIPLDTCSDQPIFPNSTHNAIQSDGFSYEQPICEFGDSQLFLSAKSLCTEPNSSIAEDVKPVLTVSDSDITASNRNNIDDHNRVIELSTEV | not soluble
MSLEWTKLTGTLKPDKDVKRGMLAIQPLGKGQFQLDVVSLFPSDTWDNGKSVFRADIMQNLKEYAPDFIRFPGGCIVHGVNEATMYHWKKTIGPIENRPGQWSKWAPYYRTDGIGYHEFYELCEYLGADAMYVIPTGMICTGWVKQSSPWNFIQPDVDLDAYIQDALDAIEYAIGPETSKWGALRVKNGHPKPFPLKYIEIGNEDFGPVYWERYEKIYQALHRQYPDLIYIANSIIGKENDDKRIDIAKFVNPKNVKVFDEHHYQPVEWACKQHYRFDNYERGIADLFVGELGIDGKYPYNLLASGAVRMSLERNGDLNPLLAERPVMRHWDFSEHRQLHSMLINGVDCSIRTSFYYLSKMFRDHTFDVCLDAGIQGMKGLQNVFVTMGYDSESKEYILKLINLRKQEVVLQTAVKGFGKKIQAQKITLSLEPGKNNTPEMPDAVKPVQSTVTLDLNKDLQLEASSMIVYRFKEGHHHHHH | not soluble
MGSDKIHHHHHHMTSAYCTVLSKGRLYQAVALFKSLEQVDQDSPIFILCMDEDTHRVLQKLKMKQLNLVPVAALENELLLKLKETRDQSEYCWTMKPIFLQAVLNSNPELERVTYIDGDLFFYADPSPIFENQPDCSVLLSRGDIVIPSFEKEQIDMLQRLLGRYNSGFISFKHDDAGTDCLEWWKERCLEECKNAPGEGKFGDQGYLDYMSELFPNVCDITTPGVNIGHWNYGQHTFSWKDGRIVLEDGSPLIFYHFSGYRIVSINEIKQIHETTRTDLPFVHELYQETLPHIIQHMQTLDPEFNGFASKDDNK | not soluble
MPGVTVKEIDQHVLTKNMAAFLKKSGKIFVPEQAVYMKTGKFKETAPTDDDWFYTRCASIMRHLYLRSPAGVGAFTKVYSGRKRNGVRPSKHCRSSDGCIRKALQALEAANMVERHPDGGRKLTPQGQRNLDRIANKIVAKQRERSAPVSMIITTLEHHHHHH | soluble
MSLHPHAMPDMGPDMNKVPWMGDEQIAMLVYPGMTVMDLVGPHCMFGSLMGAKIYIVAKSLDPVTSDAGLAIVPTATFGTCPRDLTVLFAPGGTDGTLAAASDAETLAFMADRGARAKYITSVCSGSLILGAAGLLKGYKATSHWSCRDALAGFGAIPTEARVVRDRNRITGAGVTAGLDFGLSMVAELRDQTYAECAQLMSEYDPDPPFNAGSMKTAPAHVRTAMIELVAEFTKKADALAGFPKEGHHHHHH | soluble
LSNFQGKVMMTVNATDVTDVITIPTAAGKNLCIVRAMDVGYMCDDTITYECPVLSAGNDPEDIDCWCTKSAVYVRYGRCT | soluble
LRIEPVHDVEHSATVRDLEHIVAESRDAGELPRELSTLLGRILDFPTRTAGHAMIPRAHVDTVRAHDSLSSVLEKMGAGHTRYPVVGSSSDDLRGVIHLHDLLGEQSDGPAASRARPAVVVPSSLPLPDVLEQLTAARDEMALVVDEYGGFAGVITIEDLAEELVGEIA | not soluble
MKVEILPFGNMDQWVTREIKESGIIGGNTKKVYAIGPTETIVGAKPYANKGGSPWGTSNVMARVSGITKTNTSVFPETRGDGFCARLDTRMESVKVLGIVDITVLAAGSMFLGTVHEPIKSTKNPNKMLQMGIPFTDRPSAIQFDYKVKMSDRENRIRATGFSKITDVPGKDFPAVILLLQKRWEDAKGNVYAKRIGTMVNYYYHSTDWKNGSKYDIMYGDITKDPAYKAHMMRLQASEYFTVNSKGESVPIHEVAWGEADDVPTHMILQFTSSHGGAYIGSPGNSLYIDNVKLIYLEHHHHHH | soluble
MGSDKIHHHHHHMIKLKKVLVLGGTRFFGKHLVEALLQDGHDVTIATRGITEDSFGSRVKRLIVDREDEKQLAERLADKSYDIVYDNLCYSSNAAKIICEVLRGKTTKYVMTSSMAVYEPALSLSEEDFDPYEYAIAYGDRNDFNYGEGKRLAEAVVFQQATFPVVAVRFPVVIGENDYTKRLQFYVEHIVREEPVAVNHLDGKLSFIHEEEAGEFLAWCGMKDIEGPINACSNGVVSTREIIHFIEENTGIKSLIQEVGDHVAPYNEVTNCTLHNGKANELGFPFRGLKIEIEKVLCYYIHAMK | not soluble
GTIITVTAQANEKNTRTVSTAKGDKKIISVPLFEKEKGSNVKVAYGSAFLPDFIQLGDTVTVSGRVQAKESGEYVNYNFVFPTVEKVFITNDNSSQSQAKQDLFGGSEPIEVNSEDLPF | soluble
MGSDKIHHHHHHMLTLANVALLSQLALQQPGETDKKPEDCSFEQIEFTINFAVGRLNHCEKTGDNQYKLFLEPEREKINPSPWYAFAVKNKTETSQTIDITLVASEGVSRYKPKRSEGDDIWHAIPFSEGDGTLQFELTLSGQTKEYIAGQEIIDNVHYIEWLSSLIKEPQQTEVISLGVSSEGRNLAALEHRVESSDKWIILIGRQHPPEVTGALALLHFGELLFSDEPYVVKFRQKYNILLVPNMNPDGVYHGNWRLTAAGIDMNRDWKNLTLPETQAMANYLKKLVKDGGKIEFAIDFHSTRKNVFYTMPEDYEPRSGVPLRNPQRVYNWIEEIEELVGSVELDYQPGAHPESGVFKQFIADEFAAHAVTYEVSDNEERNNIKKVAEAALISLINRLD | not soluble
FNCLGMSNRDFLEGVSGATWVDLVLEGDSCVTIMSKDKPTIDVKMMNMEAANLAEVRSYCYLATVSDLSTKAACPTMGEAHNDKRADPAFVCRQGVVDRGWGNGCGLFGKGSIDTCAKFACSTKAIGRTILKENIKYEVAIFVHGPTTVESHGNYSTQVGATQAGRFSITPAAPSYTLKLGEYGEVTVDCEPRSGIDTNAYYVMTVGTKTFLVHREWFMDLNLPWSSAGSTVWRNRETLMEFEEPHATKQSVIALGSQEGALHQALAGAIPVEFSSNTVKLTSGHLKCRVKMEKLQLKGTTYGVCSKAFKFLGTPADTGHGTVVLELQYTGTDGPCKVPISSVASLNDLTPVGRLVTVNPFVSVATANAKVLIELEPPFGDSYIVVGRGEQQINHHWHKSGS | soluble
MDKYRLLLLGGGRGLFDIDEDFMHWIDEFIEEHSNSIEITIVTGKNKKLYDNLTHKKPLKNIKVLGFVNDMYNLIRECDLMLTKPGGATIFEAIQSQTPVLVKMPKVGQEIENAKFIIDKGLGMIYSDDLDLKNIFYKLVSNEFDSIINFMKKNLKEFKTVIHPEKIADYISELIDNHLEHHHHHH | not soluble

— the DeepSol protein solubility set
